Measurements: article PMC9154775

Target: hC3nb1-K57-ScFc (llama | bovine)
Experiment: SPR

human Complement C3 (natural protein)
Kd: 3.7 nM
